B1: baculovirus-expressed S. purpuratus katanin p60 subunit with N-terminal His(6) tag (protein)
chain: HHHHHHMSVDEICENTKMGREYALLGNYETSLVYYQGVLQQIQKLLTSVHEPQRKHQWQTIRQELSQEYEHVKNITKTLNGFKSEPAAPEPAPNHRAAPFSHHQHAAKPAAAEPARDPDVWPPPTPVDHRPSPPYQRAARKDPPRRSEPSKPANRAPGNDRGGRGPSDRRGDARSGGGGRGGARGSDKDKNRGGKSDKDKKAPSGEEGDEKKFDPAGYDKDLVENLERDIVQRNPNVHWADIAGLTEAKRLLEEAVVLPLWMPDYFKGIRRPWKGVLMVGPPGTGKTMLAKAVATECGTTFFNVSSASLTSKYHGESEKLVRLLFEMARFYAPSTIFIDEIDSICSKRGTGSEHEASRRVKSELLIQMDGVSGPSAGEESSKMVMVLAATNFPWDIDEALRRRLEKRIYIPLPEIDGREQLLRINLKEVPLADDIDLKSIAEKMDGYSGADITNVCRDASMMAMRRRIQGLRPEEIRHIPKEELNQPSTPADFLLALQKVSKSVGKEDLVKYMAWMEEFGSV
B2: co-expressed recombinant p60/p80 katanin heterodimer (baculovirus, both subunits with N-terminal His(6) tag) (protein)
chain 1: B1 chain
chain 2: HHHHHHMATKRAWKLQELVAHSSNVNCLALGPMSGRVMVTGGEDKKVNLWAVGKQNCIISLSGHTSPVDSVKFNSSEELVVAGSQSGTMKIYDLEPAKIVRTLTGHRNSIRCMDFHPFGEFVASGSTDTNVKLWDVRRKGCIYTYKGHSDQVNMIKFSPDGKWLVTASEDTTIKLWDLTMGKLFQEFKNHTGGVTGIEFHPNEFLLASGSSDRTVQFWDLETFQLVSSTSPGASAVRSISFHPDGSYLFCSSQDMLHAFGWEPIRCFDTFSVGWGKVADTVIASTQLIGASFNATNVSVYVADLSRMSTTGIAQEPQSQPSKTPSGGAEEVPSKPLTASGRKNFVRERPHTTSSKQRQPDVKSEPERQSPTQDEGVKDDDATDIKDPDSYAKIFSPKTRVDHSPERNAQPFPAPLDVPGAQEPEPFKHPPKPAAAAAVAPVSRAPAPSASDWQPAQANPAPNRVPAATKPVPAQEVAPSRKPDPISTIIPSDRNKPANLDMDAFLPPAHAQQAPRVNAPASRKQSDSERIEGLRKGHDSMCQVLSSRHRNLDVVRAIWTAGDAKTSVESVVNMKDQAILVDILNIMLLKKSLWNLDMCVVVLPRLKELLSSKYENYVHTSCACLKLILKNFTSLFNQNIKCPPSGIDITREERYNKCSKCYSYLIATRGYVEEKQHVSGKLGSSFRELHLLLDQLE

Molecular target: microtubules prepared from bovine brain tubulin (taxol-stabilized)

Protein | ATPase activity (malachite green) | maximal basal and microtubule-stimulated ATPase rates relative to p60/p80 | microtubule concentration at peak ATPase stimulation | microtubule severing (fluorescence microscopy assay) | rate of microtubule disassembly (DAPI fluorescence assay) | ATPase activity (malachite green), stimulation by microtubules | maximal microtubule-stimulated ATPase rate
B1 | p60 alone displayed a microtubule-stimulated ATPase activity | only 2-fold lower than those of the p60/p80 heterodimer | peak at ˜2 µM tubulin | Both p60 and p60/p80 severed microtubules in this assay | p60 was half as active as p60/p80 | – | –
B2 | – | – | peak at ˜2 µM tubulin | Both p60 and p60/p80 severed microtubules in this assay | – | this activity was stimulated ˜10-fold by microtubules | maximal microtubule-stimulated rate of 3 ATP/katanin/sec
